Target: Cas7 of the PseCAST TniQ-Cascade (QCascade) complex (Pseudoalteromonas (Tn7016 transposon))
Experiment: cryo-EM structure

stoichiometry N: 6
Substance: Cas7 of the PseCAST TniQ-Cascade (QCascade) complex (natural protein)

From publication PMC12375015
